According to the nanobody polyreactivity screen of Harvey et al. (2022):

Assay: yeast display, Sf9 membrane polyspecificity reagent, FACS + sequencing; frameworks hold sequencing errors
Outline: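 Using colony PCR, genes from sorted yeast display clones were amplified, then sequenced on MiSeq at 2 × 250 and filtered by CDR length. The clones had been stained with 10% biotinylated, detergent-solubilized Sf9 membrane reagent for 1 hour at 4 °C and sorted by FACS into low and high (top ~1%) gates on anti-HA and streptavidin fluorescence. Polyreactivity labels come from the gate of origin.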

Sequence	polyreactivity (PSR sort gate)
QVKLVESGGGLVQEGASLRLSCAASGRIFGNYAMGWYRQAPGKERELVAAIDLSGDSTYYADSVKGRFTISRDNAKNTVYLQMNSLKPEDTAVYYCAATDWFSEYYWGQGTQVTVSS	low polyreactivity
QVQLVQSGGGLVQAGGSLRLSCAASGLTLRGNTMGWYRQAPGKEREMVADITASAGSTYYADSVKGRFTISRDNAKNTVYLQMNSLKPEDTAVYYCATVRYDVAAWAYSEYYYWGQGSQVTVSS	low polyreactivity
QVQLVESGGGLVQAGGSLRLSCAASGRIFKIYAMGWYRQAPGKERELVAAISRGGRTYYADSVKGRFTISRDNAKNTVYLQMNSLKPEDTAVYYCAADLLISPEFYYWGQGTQVTVSS	high polyreactivity
QVHLVESGGGLVQAGGSLRLICAASGISFLAYAMGCYRHAPRKERELVAAISTDGGSTYYADSVKGRFTISRDNAKNTVYLQMNSLKPVYTAVYYCAAKQRYVRTRGMDYWGQGTQVTVSS	high polyreactivity
QVQLVESGGGLVQAGGSLRLSCAASGSTFVFYAMGWSREAPGKERELVAAITISGDITYYADSVKGRFTISRDNAKNTVYLQMNSLKPEDTAVYYWAVDGPIPDLHEYWGQGTQVTVSS	low polyreactivity
QVQLVESGGGLVQAGGSLRLSCAASGRIFVPYVMGWYRQAPGKERELVASISDSDTSTYYADSVKGRFTISRDNATNTVYLQMNSLKPEDTAVYYCNVDYWGQGTQVTVSS	low polyreactivity
QVQLVESGGGLVQAGGSLRLSCAASGSIFSPNAMGWNRQAPGKERELVAAISRRGGRTYYADSVKGRFTISRDNAKNTVYFQMNSLKPEDTAVYYCNAVWYSDTYTNPQYDYWGQGTQVTVSS	high polyreactivity
QVQLVESGGGLVQAGGSLRLSCAASGLIFRPYTMGWYRQAPGKERELVAAINFSGGNTYYADSVKGRFTISRDNAKNTVYLQMNSLKPEDTAVYYCATKSFYGYYYWPYGYWGQGTQVTVSS	low polyreactivity
QVQLVESGGGLVQAGGSLRLSCSASGRTFSSNAMGWYRKAPGKERELVAAITWSGGTTYYADSVKGRFTISRDNAKNTVYLQMNSQKPEDTAVYYCNAKRRGYTASVGYWGQGTQVTVSS	high polyreactivity
QVQLVESGGGLVQAGGSLRLSCAASGIIFTDNALGWYRQAPGKERELVATISWSTDNTYYADSVKGRFTISRDNAKNTVYLQMNSLKPEDTAVYYCAAEEYYAYWYQYDYWGQGTQVTVSS	low polyreactivity
QVQLLESGGGLVQAGGSLRLSCAASGSIFGRYVMGWYRQAPGKERELVPRITQSGGSTYYADSVKGRFTISRDNAKNTVYLQMNSLKPEDTAVYYCNVARWGNIPVGEYDYWGQGTQVTVSS	high polyreactivity
QVQLQESGGGMVQAGGSLRLTCAATGYISSCYPMRWYRQAPGKEREFVATIAPGATTYYADSVKGRFTISRDYAKNTVYLQMNSQKPEATAVYVCAAGPENIDFYSYWGQGTQVTVSS	low polyreactivity
QVQLVESGGGLVQAGGSLRLSCAASGSTFYKYAMGWYRQAPGKERELVATINISGGSTSYADSVKGRFTISRDYAKNTVYLQMNSLKPEDTAVYYCAASLTRHGYYRRFDYWGQGTQVTVSS	high polyreactivity
QVQLVESGGGLVQAGGSLRLSCAASGFIFRSYAMGWYRQAPGKERELVAAITKSGGRTYYADSVKGRFTISRDNAKNTVYLQMNSLKPEDSAVYYCAADQTSYSTSRRYDYWGQGTQVTVSS	high polyreactivity
QVQLVESGGGLVQAGGSLRLSCAASGSNFYVYAMGCYRQAPGKERELVAAINYDSGSTYYADSVKGRFTISRDTAKNTVYLQMNSLIPEDTAVYYCGTDGVNPFYAYDYWGQGTQVTVSS	low polyreactivity
QVQLVESCGCLVQAVGSLRLSCAASGRIFGWYAMGWDRQAPVKERELVAAISSARRTYYADSVKGRFTISRDNAKNSVYLQMNSLKPEDTAVSYCAAYYYNDRMYYWGQGNQVTVSS	high polyreactivity
QVQLVESGGGLVQAGGSLRLSCAASGRIFSTYAMGWYRQAPGKERELVAAITWDGRTYYADSVKGRFTISRDNAKNTVYLQMNSLKPEDTAVYYCAADGEYRYDWEYESWGQGTQVTVSS	low polyreactivity
QVQLVESGGGLVQAGGSLRLSCAASGSIFRYYAMGWYRQAPGKERELVAVITRGGSTYYADSVKGRFTISRDNAKNTVYLQMNSLKPEDTAVYYCAADYWPACMDRGYWGQATQVTVSS	low polyreactivity
QVQLVESGGGLVQAGGSLRLSCAASGSIFALYAMGWYRQAPGKERELVAAISYRGGRTYYADSVKGRFTISRDNAKNTVYLQMNSLKPEDTAVYYCKAAYGTSYLYNSEFYAAFTYDYWGQGTQVTVSS	low polyreactivity
QVQLVESGGGLVQAGGSRRLSCAASGSTFRYYAMGWYRQAPGKERELVAAISKRGGSTYYADSVKGRFTISRDNAKNTVYLQMNSLKPEDTAVYYCAAYGSVGLEYWGQGTQVTVSS	high polyreactivity
QVQLVESGGGLVQAGGRLRLSCAASGRIFIRNAMGWYRQAPGKERELVAAIDSVGSTYYADSVKGRFTISRDNAKNTVYLQMNSLKPEDTAVYYCAARGWKYASPYWRYYYWGQGTQVTVSS	low polyreactivity
QVQLVESGGGLVQAGGSLRLSCAASGLTFSGYAMGWYRQAPGKERELVAAISWRGGSTYYADSVKGRFTISRDNAKNTVYLQMNSLKPEDTAVYYCNRARVQDYPYYYWGQGTQVTVSS	high polyreactivity

Sequence	polyreactivity (PSR sort gate)
QVQIVESGGRLVQAGCSLRLSCAASGSTFKINAMGWYRQAPGKEWELVAVIRSRGTSTYYADSVKGRFTISRDNSKNTVYLQMNSLKPVDTAVYNCAAGRINGGDYWGQGTQVTVSS	high polyreactivity
QVQLVESGGGLVQAGGSLRLSCAASGRTLYPYAMGWYRQAPGKERELVATITWGDGSTSYADSVKGRFTISRDNAKNTVYLQMNSLKPEDTAVYYCNVRISNTSYRYPTFDYWGQGTQVTVSS	low polyreactivity
QVQLVESGGGLVQAGGSLRLSCAASGSTFGDNAMGWYRQAPGKERELVAAITSVGTTYYADSVKGRFTISRDNAKNTVYLQMNSLKPEDTAVYYCNAEYVWDDYFEFDYWGQGTQVTVSS	low polyreactivity
QVQLVESGGGLVQAGGSLHLSCAASGSIFRKNAMGWYRQAPGKERELVAVITSSGASTYYADSVKGRFTISRDNAKNTVYLQMNSLKPEDTAVYYCNAPSFYTKKMYSWGQGTQVTVSS	high polyreactivity
QVQLVESGGGLVQAGGRLRLSCAASGRIFKFYAMGWYRQAPGKERELVAAIRRGGTTNYADSVKGRFTISRDNAKNTFYLQMNSLKPEDTAVYFCAADGWYRVLTGLVSSWKYWGQGTQVTVSS	high polyreactivity
QVQLVESGGGLVQAGGSLRLSCAASGGTFQINAMGWYRQAPGKEREMVAAISAAGGRTYYADSVKGRFTISRDNANNTVYLQMNSLKPEDTAVSYCAADWSYQVGRHQYFPMRYDYWGQGTQVTVSS	high polyreactivity
QVQLVESGGGLVQAGGSLRLSCAASGFIFDLYAMGWYRQAPGKERELVAAITYSGGSTYYADSVKGRFTISRDNAKNTVYLQMNSLKPEDTAVYYCATVEKFYEYDHWGQGTQVTVSS	low polyreactivity
QVQLVESGGGLVQAGGILRLSCAASGRIFQHYPMGWYRQAPGKERELVAAISRSGDSTYYADSVKGRFTISRDNAKNTVYLQMNSLKPEDTAVYYCKIVRYSFLYDSWGQGTQVTVSS	high polyreactivity
QVQLVESGGGLVQAGGSLRLSCAASGSIFYRYAMGWYRQAPGKERELVAAIRWSGGSTYYADSVKGRFTISRDNAKNTVYLQMNSLKPEDTAVYYCATEVSSGGYWSWYGYWGQGTQVTVSS	low polyreactivity
QVQLVESGGGLVQAGGSLRLSCAASGRTLSAYAMGWYRQAPGKERELVAALRWRGGSTVYAASVKGRFTISRDNAKNPVYLQMHSLKPADTAVYYCNALPGNRRTVYYWGQGTQVTVSS	high polyreactivity
QVQLVESGGGLVQAGGSLRLSCAASGRTLTFYAMGWYRQAPVKERELVAAISRRAGSTYYADSVKGRFTISRDTAKNTVYLQMNSLKPEDTAVYYCAREPYSASHRYCLYRGYDYWGQGTQVTVSS	low polyreactivity
QVQLVESGGGLVQAGGSLRLSCAASGSTFYVNAMGWYRQAPGKERELVAAIRYSGGRTYYADSVKGRFTISRDNAKNTVYLQMNSLKPEDTAVYYCAATTYYGGLYTREFDYWGQGTQVTVSS	low polyreactivity
QVQLVESGGGLVQAGGSLRLSCAASGFIFVVYAMGWYRQAPGKERELVATISSGGGTYYADSVKGRFTISRDNAKNTVYLQMNSLKPEDTAVYYCAARRRRLYHFGGNNYWGQGTQVTVSS	high polyreactivity
QVQLVESGGGLVQAGGSLRLSCAASGFTFYDYAMGWYRQAPGKERELVAVITRRGGSTYYADSVKRRFTISRDNAKKTVDLQMNSLKPEDTAVYDCAADWRGWSFVRGDDYWGHGTQVTVSS	high polyreactivity
QVQLVESGGGLVQAGGSLRLSCAASGITFGSNTMGLYRQAPGKERELVAVITWSGGSTYYADSVKGRFTISRDNAKNTVYLQMNSLIPEDTAVYDCAKPGEVNGQPPPQTESAYDYRGQGTQVTVSS	low polyreactivity
QLQLVESGGGLVLAAGSLRLSCAASGYTFKSYAMGCSRQAPGKERELVAAISNGGNTYYADSVKGRFTISRDNAKNTVYIQMNSLKPEDTAVYYCAARYGYYYSRYDHWGQGTQVTVSS	low polyreactivity
QVQLVESGGGLVQAGGSLRLSCAASGRIFGYNAMGWYRQAPGKERELVASITSAASTYYADSVKGRFTISRDNAKNTVYLQMNSLKPEDTAVYYCAASAYSALFYWYDYWGQGTQVTVSW	high polyreactivity
QFQLVESGGVLDQAGCSLRLSCAASGYTFYANAMGWYRQAPGKEREFVASIPWSGGSTYYADSVKGRFTISRDNAKNTVYLQMNSLKPEDTAVYYCAAESWFKYDYWGQGTQVTVSS	low polyreactivity
QVHIVESGGGLDQAGGSLRLSCAASGSIFYRNAMGWYRQAPGKEREMVAAISSDGSTNYADSVKGRFTISRDNAKNTVYLQMNSLKQEDTAVYFCAAQWTQILDYWGQGTQVNVSS	low polyreactivity
QVQLVESGGGLVQAGGSLRLSCAASGRIFTRYAMGWYRKEPGKERELVAAISYGGGGTYYADSVKGRFTISRDNAKNTVYLQMNSLKPEDTAVYYCATDDPLSQINEQGMDYWGQGTQVTVSS	low polyreactivity
QVQLVEAGGGLVQAGGTLRLSCDPSGLIFGLYAMGWYRHAPGKERELVAAISESGGGITYYADSVKGRFTISRDNAKNTVYLQMYSLKPEDTAVYYCNADRYVWAGFDFSTYDYWGQGTLVTVSS	low polyreactivity
